Test results as given in patent publication US20040197858A1.

Key:
[1] = target: purified recombinant α-thrombin (human) (UniProt P00734); assay: cell-based or functional assay
[2] = target: purified α-thrombin derived from plasma (human) (UniProt P00734); assay: cell-based or functional assay

antithrombin III
Inhibition by ATIII: Secondary reaction constant [1]: 0.57 µM⁻¹ min⁻¹ | Inhibition by ATIII: Secondary reaction constant [2]: 0.65 µM⁻¹ min⁻¹
